This is an account of results in US20180312578A1 (Ablynx, published 2018).

Sequences and labels used below:
B1: Reference C (SEQ ID NO: 3) (VHH)
VHH: EVQLLESGGGLVQPGGSLRLSCAASGFTFDTSSMLWVRQAPGKGLEWVSVIHQSGTPTYYADSVKGRFTISRDNSKNTLYLQMNSLRAEDTAVYYCAKFPSSRMKFDYWGQGTLVTVSS
notes: Heavy-chain immunoglobulin single variable domain (VH-derived domain antibody); Captured on human serum albumin; also called DOM7r-92-100
B2: Reference D+L11V+V89L (SEQ ID NO: 93) (VHH)
VHH: B1 VHH with L11V, V93L
B3: Reference D (SEQ ID NO: 4) (VHH)
VHH: B1 VHH
notes: Captured on human serum albumin; also called DOM7r-92-104
B4: Reference D+L11V+V89L+T110K (SEQ ID NO: 94) (VHH)
VHH: B1 VHH with L11V, V93L, T116K

Numbering of substitutions follows the chain as printed. Names and notes keep the numbering of the source.

The assay deals with T1, human serum albumin (human, UniProt P02768 25-609).
T1 construct: also called HSA
Description: ProteOn SPR, capture on immobilised HSA.
Description: In case of binding of pre-existing antibodies on Nanobodies captured on human serum albumin (HSA) was evaluated using the ProteOn XPR36 (Bio-Rad Laboratories, Inc.). PBS/Tween (phosphate buffered saline, pH7.4, 0.005% Tween20) was used as running buffer and the experiments were performed at 25° C. The ligand lanes of a ProteOn GLC Sensor Chip were activated with EDC/NHS (flow rate 30 μl/min) and HSA was injected at 10 μg/ml in ProteOn Acetate buffer pH4.5 (flow rate 100 μl/min) to render immobilization levels of approximately 3200 RU. After immobilization, surfaces were deactivated with ethanolamine HCl (flow rate 30 μl/min). Nanobodies were injected for 2 minutes at 45 μl/min over the HSA surface to render a Nanobody capture level of approximately 200 RU. The samples containing pre-existing antibodies were centrifuged for 2 minutes at 14,000 rpm and supernatant was diluted 1:10 in PBS-Tween20 (0.005%) before being injected for 2 minutes at 45 μl/min followed by a subsequent 400 seconds dissociation step. After each cycle (i.e. before a new Nanobody capture and blood sample injection step) the HSA surfaces were regenerated with a 2 minute injection of HCl (100 mM) at 45 μl/min. Sensorgram processing and data analysis was performed with ProteOn Manager 3.1.0 (Bio-Rad Laboratories, Inc.). Sensorgrams showing pre-existing antibody binding were obtained after double referencing by subtracting 1) Nanobody-HSA dissociation and 2) non-specific binding to reference ligand lane.
Consider B1, for which the binding result was “binds”.
Consider B2, for which the binding result was “binds”.
In the case of B3, the binding result was “binds”.
Take B4: the binding result is “binds”.
